Positions of bridges follow the written chain, without caps; N, C: chain ends. No end group written: not given here.
B1: C1 peptide (peptide)
peptide: DYKDCWARPCGDAANFYDWFVQQASKK
modifications: disulfide 5-10 (inferred)
notes: synthetic; biotinylated where printed as b-C1 or D112; also called D112; b-C1

Key:
sIGF-1R-Fc = molecular target: T1, sIGF-1R-Fc (UniProt P08069 31-935); test: phage ELISA
T1 construct: also called slGF-1R-Fc; not shown: Fc part not described

[1] = molecular target: human IGF-1 receptor (HIGF-1R) (human, UniProt P08069 31-1367); test: displacement of 125I-IGF-1 from HIGF-1R
[2] = molecular target: T2, soluble human insulin receptor (IR-Fc) (human, UniProt P06213 28-956); test: assay not given
T2 construct: extracellular domain; retains the beta-alpha-alpha-beta structure; also called sIR; sIR-Fc

Binder	binding result (sIGF-1R-Fc)	further results
HPPLEHLKAFLLGGGS (on phage; motif 7; also called ~J228) [IM452 (Δ-12-3 #23)]	no binding	–
HPTSKEIYAKLLGGGS (on phage; motif 7) [IM449 (Δ-12-3 #43)]	no binding	–
HPSTNQMLMKLFGGGS (on phage; motif 7) [IM450 (Δ-12-3 #28)]	no binding	–
B1	–	binding result [1]: binds
APTFYAWFNQQTGGGS (on phage; also called ~J229) [IM445 (Δ-12-3 #6)]	–	IC50 [2]: ~2400 nM
HPPLSELKLFLIGGGS (on phage; motif 7) [IM451 (Δ-12-3 #34)]	no binding	–
HPSLSDMRWILLGGGS (on phage; motif 7) [IM459 (Δ-12-3* #60)]	no binding	–

— patent publication WO2001072771A2 (dated 2003)
